Test results taken from patent US12215133 (BRIGHTGENE BIO MEDICAL TECHNOLOGY, dated 2025).

T1: GIP receptor
T1 sequence (P48546 whole entry, species assumed, looked up): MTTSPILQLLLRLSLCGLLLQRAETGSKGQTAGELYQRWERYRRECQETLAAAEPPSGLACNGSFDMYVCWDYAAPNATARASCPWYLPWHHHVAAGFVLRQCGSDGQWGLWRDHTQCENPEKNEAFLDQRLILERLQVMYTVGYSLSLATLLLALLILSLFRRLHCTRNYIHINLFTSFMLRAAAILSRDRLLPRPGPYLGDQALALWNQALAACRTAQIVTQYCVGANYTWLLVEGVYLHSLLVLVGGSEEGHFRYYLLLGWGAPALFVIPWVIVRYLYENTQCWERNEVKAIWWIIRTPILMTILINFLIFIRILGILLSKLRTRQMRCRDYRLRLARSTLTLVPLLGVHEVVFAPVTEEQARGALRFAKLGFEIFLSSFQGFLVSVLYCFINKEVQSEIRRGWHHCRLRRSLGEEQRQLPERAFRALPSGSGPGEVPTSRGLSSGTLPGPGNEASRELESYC

B1: BG128 (peptide)
peptide: YXEGTFTSDYSIXLDKIAQKAFVQWLIAGGPSSGAPPPSK
modifications: Aib (2-aminoisobutyric acid) at positions 2 and 13; Lys at position 40 carries on its side chain AEEEA-AEEEA-gamma-Glu-icosanedioic acid (Fmoc-AEEEA-OH, Fmoc-AEEEA-OH, Fmoc-Glu-OtBu and 20-(tert-butoxy)-20-oxoicosanoic acid condensed in turn); C-terminal amide (made on Rink MBHA Amide resin)
B2: BGM125 (peptide)
peptide: YXEGTFTSDYSIXLDKIAQKAFVQWLIAGGPSSGAPPPS
modifications: Aib at positions 2 and 13; by the synthesis order the Lys(Alloc) at position 16 carries AEEEA-AEEEA-gamma-Glu-icosanedioic acid on its side chain; C-terminal amide (Rink MBHA Amide resin)

Key:
GIP receptor = target: T1, GIP receptor; assay: cell-based or functional assay
GLP-1 receptor = assay: cell-based or functional assay

| Binder | cAMP experimental result of GIP receptor, EC50 (GIP receptor) [nM] | cAMP experimental result of GLP-1 receptor, EC50 (GLP-1 receptor) [nM] |
| --- | --- | --- |
| B1 | 0.279 | 0.11 |
| B2 | 0.684 | 0.0692 |
